Experimental findings from publication PMC2768988 (2009) are described below.

The target in the experiment is T1, Flrt3 ectodomain (zebrafish, biotin on the enzymatically biotinylatable sequence (bait form)).
T1 chain: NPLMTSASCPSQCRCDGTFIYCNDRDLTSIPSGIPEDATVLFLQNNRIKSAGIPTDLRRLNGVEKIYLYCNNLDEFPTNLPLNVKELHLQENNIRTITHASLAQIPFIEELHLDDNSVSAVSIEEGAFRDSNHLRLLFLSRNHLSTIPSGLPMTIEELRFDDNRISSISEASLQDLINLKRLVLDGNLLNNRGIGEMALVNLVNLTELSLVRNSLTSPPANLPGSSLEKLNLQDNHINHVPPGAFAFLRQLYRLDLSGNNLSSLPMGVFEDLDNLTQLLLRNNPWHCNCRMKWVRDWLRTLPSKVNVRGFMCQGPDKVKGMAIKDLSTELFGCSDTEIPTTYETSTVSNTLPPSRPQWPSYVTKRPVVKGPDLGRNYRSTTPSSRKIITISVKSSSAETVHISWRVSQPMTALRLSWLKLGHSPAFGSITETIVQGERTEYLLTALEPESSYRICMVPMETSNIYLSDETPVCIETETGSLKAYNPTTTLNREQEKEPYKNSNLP
Briefly: SPR. A general note: In SPR one partner is held on a chip, and binding of the other changes the refractive index at the surface.

B1: Unc5b-Cd4d3+4-6His (domain or fragment)
chain: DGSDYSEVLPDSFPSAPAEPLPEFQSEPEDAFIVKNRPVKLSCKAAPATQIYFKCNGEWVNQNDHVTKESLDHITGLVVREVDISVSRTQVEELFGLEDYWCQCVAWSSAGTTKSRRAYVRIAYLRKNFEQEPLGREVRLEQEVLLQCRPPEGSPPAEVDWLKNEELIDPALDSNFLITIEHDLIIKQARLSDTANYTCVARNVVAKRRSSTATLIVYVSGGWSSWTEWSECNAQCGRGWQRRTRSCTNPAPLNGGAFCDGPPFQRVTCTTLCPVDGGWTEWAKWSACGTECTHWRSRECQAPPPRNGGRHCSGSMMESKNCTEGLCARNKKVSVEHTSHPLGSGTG
The molecule B1 registered a koff of 5.5 s⁻¹.

For orientation: koff means the first-order rate constant of dissociation. Lower therefore signals a long-lived complex.
